Laboratory results published in patent US20230126796.
Like-named read-outs stand apart in the source and are kept apart here.

T1: PAR4-B synthetic peptide
T1 chain: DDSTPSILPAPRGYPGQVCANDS

T2: PAR4-C synthetic peptide
T2 chain: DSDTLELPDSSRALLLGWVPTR

B1: cathepsin G (protein)
chain: IIGGRESRPHSRPYMAYLQIQSPAGQSRCGGFLVREDFVLTAAHCWGSNINVTLGAHNIQRRENTQQHITARRAIRHPQYNQRTIQNDIMLLQLSRRVRRNRNVNPVALPRAQEGLRPGTLCTVAGWGRVSMRRGTDTLREVQLRVQRDRQCLRIFGSYDPRRQICVGDRRERKAAFKGDSGGPLLCNNVAHGIVSYGKSSGVPPEVFTRVSSFLPWIRTTMRS

Experiments:
[1] = test system: PAR4-B synthetic peptide
[2] = test system: PAR4-C synthetic peptide
[3] = target: T1, PAR4-B synthetic peptide
[4] = target: T2, PAR4-C synthetic peptide

Molecule | proteolysis of the peptide, LC-MS/MS [1] | proteolysis of the peptide, LC-MS/MS [2] | proteolysis of the peptide, LC-MS/MS [3] | proteolysis of the peptide, LC-MS/MS [4]
alpha-thrombin | PAR4-B was cleaved by thrombin between amino acids Arg47 and Gly48 | thrombin failed to cleave PAR4-C | – | –
B1 | – | – | little cleavage was observed with CatG | CatG cleavage generated several fragments, including DSDTLELPSS
